{
  "source": "paper doi:10.1101/2024.09.22.614354",
  "about": "(bioRxiv, 2024)",
  "binders": {"B1": {"name": "TMR-E7^LxCxE (LxCxE peptide of the E7 oncoprotein from HPV, TMR-labeled) (peptide)", "peptide": "DLYCYEQLN", "modifications": "not fully specified; TMR fluorescent label (TMR-E7^LxCxE)"}},
  "experiment_in_all_cases": "fluorescence polarisation",
  "key": {"Rb^P I703F": {"molecular_target": "T1, Rb^P I703F (human, UniProt P06400 380-788, I703F)", "T1 sequence": "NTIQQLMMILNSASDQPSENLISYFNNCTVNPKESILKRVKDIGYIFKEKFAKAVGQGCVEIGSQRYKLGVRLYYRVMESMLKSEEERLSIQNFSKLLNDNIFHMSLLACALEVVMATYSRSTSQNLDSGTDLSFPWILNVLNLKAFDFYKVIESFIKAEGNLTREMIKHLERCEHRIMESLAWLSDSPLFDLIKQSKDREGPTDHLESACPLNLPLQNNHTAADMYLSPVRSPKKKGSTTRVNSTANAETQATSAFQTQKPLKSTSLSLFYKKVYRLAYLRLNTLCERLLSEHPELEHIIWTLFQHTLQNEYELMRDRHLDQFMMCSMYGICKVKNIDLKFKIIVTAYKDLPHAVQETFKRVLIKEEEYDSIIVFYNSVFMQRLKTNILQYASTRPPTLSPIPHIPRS"}, "[1]": {"molecular_target": "T2, wild type Rb pocket domain (Rb^P) (human, UniProt P06400 380-788)", "T2 sequence": "T1 sequence with F324I"}, "Rb^P R741S": {"molecular_target": "T3, Rb^P R741S (human, UniProt P06400 380-788, R741S)", "T3 sequence": "T1 sequence with F324I, R362S"}, "Rb^P A525G": {"molecular_target": "T4, Rb^P A525G (human, UniProt P06400 380-788, A525G)", "T4 sequence": "T1 sequence with A146G, F324I"}, "Rb^P I703V": {"molecular_target": "T5, Rb^P I703V (human, UniProt P06400 380-788, I703V)", "T5 sequence": "T1 sequence with F324V"}, "[2]": {"molecular_target": "T2, wild type Rb pocket domain (Rb^P)", "remark": "listed apart in the source"}},
  "note": "Changes are numbered by the printed parent chain. Like-named read-outs stand apart in the source and are kept apart here.",
  "data": [
    {"binder": "B1", "values": [
      {"measurement": "Kd", "setting": "Rb^P I703F", "value": 16, "unit": "nM"},
      {"measurement": "Kd", "setting": "[1]", "value": 5, "unit": "nM"},
      {"measurement": "binding result", "setting": "Rb^P R741S", "value": "binds"},
      {"measurement": "binding result", "setting": "Rb^P A525G", "value": "binds"},
      {"measurement": "binding result", "setting": "Rb^P I703V", "value": "binds"},
      {"measurement": "Kd", "setting": "[2]", "value": 12, "unit": "nM"}
    ]}
  ]
}
